Target: the molecule itself
Experiment: small angle scattering + dynamic light scattering (PDI); results not shown; conditions not given

B1: MamK from Magnetospirillum gryphiswaldense MSR-1, C-terminal poly-histidine-tagged (natural protein, UniProt Q6NE59 1-360, looked up)
chain: MWIDLLARERSDKMSEGEGQAKNRLFLGIDLGTSHTAVMTSRGKKFLLKSVVGYPKDVIGLKLLGRPYVVGDEAFEMRSYLDLRYPLQDGVLSEISDRDIEVARHLLTHVVKSAEPGANDEICAVIGVPARASGANKALLLKMAQEVVHTALVVSEPFMVGYGLDKLNNTIIVDIGAGTTDICALKGTVPGPEDQVTLTKAGNYLDERLQNAILERHPELQMNTNVACAVKEQFSFVGARGEAATFEFRAAGKPVRCDVTESVKIACEALMPDIIESIEILLRSFQPEYQATVLQNIVFAGGGSRIRGLAAYVKDKLRPFGNADVTCVKDPTFDGCRGALRLAEELPPQYWCQLGDVSGQ
notes: MamK, actin-like protein of M. gryphiswaldense MSR-1; mamK gene (1083 bp) cut from a MamK-pGEM construct with SalI/EcoRI and sub-cloned into pET29b; purified as a 42 KDa protein; No cleavage of the tag is described; also called His-MamK; His-tagged MamK
  stoichiometry N: 2 to 6

Source: paper PMC3346761, “Insight into the Assembly Properties and Functional Organisation of the Magnetotactic Bacterial Actin-like Homolog, MamK” (PLoS ONE, 2012)
